Measured values: patent publication US11254722B2, “Recombinant proteins and uses thereof” (ACADEMIA SINICA, priority 2017, dated 2022)

Columns and labels:
hep3B cells = test: hep3B proliferation assay; assay type: cell-based, human; details: hep3B
How it was run: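 Cells seeded at 1,000 to 6,000 per well in DMEM/F12 with 0.2% BSA and 10 ug/ml transferrin. Inhibitors added 16-20 h after plating; IGF-1 or other growth factors at plating or 16-20 h later. After 3 to 4 days, growth read by Alamar blue fluorescence at 544/590 nm after 4 to 6 h.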

[1] = Pharmacokinetics in mice, serum by Fc ELISA; assay type: in vivo
Method: Grenier high binding ELISA plates were coated with 1 ug/ml goat anti-human Fc antibody (Jackson Immunoresearch) in PBS overnight, and then blocked with Assay Buffer (Invitrogen). Plates were incubated for 2 hours with Chimera or human Fc (Jackson Immunoresearch) as standard; followed by HRP-conjugated anti-human Fc antibody (Jackson Immunoresearch) for 60 minutes. HRP substrate, tetramethyl benzidine, was added; the reaction was stopped with 2 N […], and then the plate was read at 450 nm.
Mice were injected subcutaneously with 100 ug chimera 56662 (4 mg/kg). Two mice per group were used. Serum samples were taken at 0, 4, 24, 48, 72 hours after injection. The concentration of 56662 in serum was determined by use of the hu fc ELISA.
Serum half-life was measured in mice. 100 μg IGFBP3-Fc or 56662 (4 mg/kg) was injected subcutaneously and mouse serum was harvested at 0, 4, 24, 48, 72 hours after injection. Chimera concentration in serum was measured with the Fc ELISA. At 24 hours, the concentration of 56662 was over 2 μg/ml (FIG. 28), and the serum half-time was estimated to be about 43 hours.

cancer cells = test: In vitro proliferation of cancer cells stimulated by growth factors (Table 8); assay type: cell-based
Method: (§1) For the proliferation assay, cells except for HUVEC were seeded at a density of 1,000 to 6,000 in 96 wells in an assay buffer of DMEM/F12 plus 0.2% BSA and 10 ug/ml transferrin. Chemical inhibitors were added after 16-20 hours after plating; IGF-1 or other growth factors or test chimeras in assay buffer were added at the time of plating or 16-20 hours after plating. 5,000 HUVEC ells were plated in poly-L-lysine coated 96 wells in M199 with 1%/FBS and HEPES. After 3 to 4 days of culture, growth was determined by incubating cells with Alamar blue for 4 to 6 hours and then the fluorescence (RFU) at 544/590 nm was read. For long term proliferation assays, cells were plated in the growth media with 5% or 10% FBS at densities of 500 to 10,000 cells per cm^2 growth area and grown for 7 to 21 days. Inhibitors and effectors were added 1-4 days after plating. Cells were exposed to cisplatin or gemcitabine for two days. Medium was renewed twice weekly. At completion, cells were fixed and then stained with Giemsa.
The BP3-fc construct inhibited the proliferation of cancer cells that had been stimulated by IGF-1, IGF-2, neuregulin, HGF, and bFGF.

3t3 = 3t3 proliferation assay; assay type: cell-based; details: PDGF-AB-induced
Method: MCF-7 cells (a breast cancer cell line) were maintained in MEM (GIBCO) plus insulin and NEAA and 10% FBS (Hyclone).
as §1

EGF = target: T1, EGF (Homo sapiens, UniProt P01133); test: Binding to EGF
T1 construct: purchased R&D Sciences or SinoBiologicals
T1 sequence (P01133 971-1023 limits assumed): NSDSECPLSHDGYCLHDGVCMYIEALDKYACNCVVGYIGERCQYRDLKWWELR
Text: Table 3 lists the correlation between the IGFBP3 growth factor binding as determined by the inhibition of the proliferation by 56662. The observed inhibitory effects may derive from the growth factor sequestration, and/or IGFBP3 independent effects.

PIGF = target: T2, PIGF (Homo sapiens, UniProt P49763); test: In vitro proliferation stimulated by PIGF (Table 8); assay type: cell-based
T2 construct: purchased R&D Sciences or SinoBiologicals
T2 sequence (P49763 19-221): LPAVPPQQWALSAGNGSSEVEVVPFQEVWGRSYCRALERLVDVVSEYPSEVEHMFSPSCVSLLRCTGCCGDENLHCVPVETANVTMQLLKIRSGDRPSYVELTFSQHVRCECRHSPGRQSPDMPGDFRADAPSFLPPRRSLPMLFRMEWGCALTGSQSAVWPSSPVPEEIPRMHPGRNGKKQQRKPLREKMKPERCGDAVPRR
Method: as §1
(§2) The BP3-VEGF-trap-fc (including the IGFBP3 domains, the VEGFR1 domain 2 and VEGFR2 domain 3 (VEGF-trap (22)), and human immunoglobulin Fc region) broadened the binding to include VEGF-A, VEGF-B, and placental growth factor (PIGF). This BP3-VEGF-trap chimera could inhibit the proliferation stimulated by IGF-1, IGF-2, neuregulin, PDGF-BB, HGF, bFGF, VEGF-A, and PIGF (see, Table 8).

VEGF = target: T3, VEGF (Homo sapiens, UniProt P15692); test: In vitro proliferation stimulated by VEGF (Table 8); assay type: cell-based
T3 construct: purchased R&D Systems
T3 sequence (P15692 27-191 isoform P15692-4): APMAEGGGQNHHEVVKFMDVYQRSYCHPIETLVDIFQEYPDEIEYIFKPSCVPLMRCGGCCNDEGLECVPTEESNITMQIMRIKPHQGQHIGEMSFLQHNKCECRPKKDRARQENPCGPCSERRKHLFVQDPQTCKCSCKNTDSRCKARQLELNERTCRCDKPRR
Method: as §1, §2

[2] = target: T4, nrgECD (amino acids Ser2-Lys246 of neuregulin beta 1) (Homo sapiens, UniProt Q02297); test: Biacore binding to nrgECD; details: immobilized nrgECD
T4 construct: Ser2-Lys246 of neuregulin beta 1; purchased R&D Sciences or SinoBiologicals
T4 sequence (Q02297 2-246 isoform Q02297-6): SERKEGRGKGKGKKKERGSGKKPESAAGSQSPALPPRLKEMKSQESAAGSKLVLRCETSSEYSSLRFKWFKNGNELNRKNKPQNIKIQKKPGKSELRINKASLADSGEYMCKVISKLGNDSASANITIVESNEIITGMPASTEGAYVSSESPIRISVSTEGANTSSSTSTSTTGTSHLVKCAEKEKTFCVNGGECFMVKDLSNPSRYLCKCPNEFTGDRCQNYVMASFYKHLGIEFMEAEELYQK
Method: Biacore binding was performed at David Myszka's laboratory at the University of Utah or at the Genomic Research Center at Academia Sinica. Surfaces of binding protein chimera were made via chemical immobilization on a CM4 chip using standard amine coupling chemistry. […] Excess surface carboxyl activated sites on all four flow cells was blocked using the doubly positively charged species ethylenediamine. Binding experiments (but not immobilizations) in HBS-P (10 mM HEPES pH 7.4, 150 mM NaCl, 0.05% P20), The HBS-P was supplemented with BSA at 0.2 mg/mL, or HBS-P was supplemented with 500 mM NaCl (650 mM NaCl, final concentration). Analytes were also reconstituted in the corresponding buffer. All experiments were performed at 25° C. 1/150 dilutions of phosphoric acid were used to regenerate IGFBP3-Fc surfaces and a sequence of 3 M MgCl2 followed by 5 M GuCl was used to regenerate surfaces immobilized with growth factor. Dissociation constants reported below used immobilized binding protein unless noted. Differences between binding constants may be expected between growth factor immobilization and chimera immobilization.
In this example, erbB4 domain 1 was attached to the N-terminus of the recombinant IGFBP3-Fc or the recombinant IGFBP3-v1v2-Fc.

Substance: 56662: IGFBP3-Fc, SEQ ID NO: 7; unmodified IGFBP3 fused with the IgG Fc portion [compound 56662]
- In vitro inhibition of proliferation, HGF (hep3B cells; HGF-induced): yes (hep3B, HUVEC)
- EC50 (hep3B cells; FIG. 11C, read-out: ECK for FBS-induced proliferation): 201 nM
- serum half-life ([1]; estimated): 20 to 40 h
- concentration in serum at 24 hours ([1]; mice, 100 μg (4 mg/kg) subcutaneously, FIG. 28): over 2 μg/ml
- serum half-time ([1]; mice, 100 μg (4 mg/kg) subcutaneously, estimated): about 43 hours
- inhibition of proliferation stimulated by bFGF (cancer cells): inh
- In vitro inhibition of proliferation, PDGF-AB (3t3): yes (3t3)
- binding to EGF (EGF): did not bind
- inhibition of proliferation stimulated by PIGF (PIGF): no
- inhibition of proliferation stimulated by VEGF (VEGF): no
- Kd [2]: 5.3 nM
